Assay [1] has as its target integrin α5β1 (Homo sapiens, UniProt P05556+P08648). As to the kind of experiment: Biolayer interferometry (BLI) binding to integrin α5β1. The conditions noted are these: pH 5 supplemented with 1 mM MgCl2, 1 mM CaCl2. The source says:
The polypeptides of the disclosure selectively bind to α5β1 integrin with antagonistic activity. The term “antagonistic activity” is used herein to describe the activity of a polypeptide that, upon binding to α5β1 integrin, inactivates the integrin complex or inhibits processes normally initiated by the integrin. In some embodiments, the polypeptide or fusion protein of any embodiment or combination of embodiments herein, binds integrin α5β1 with an affinity of between about 0.025 nm and about 50 μm, or between about 0.05 nm and about 8 μm, or between about 0.05 nm and about 8 μm, or between about 0.05 nm and about 2.5 μm, or between about 0.05 nm and about 700 nm, or between about 0.05 nm and about 0.5 nm. The binding affinity can be measured, for example, using biolayer interferometry (BLI) or yeast display. […] In one such assay to measure the binding affinity to a51integrin, the polypeptides are cloned with an N-terminus avi-tag and biotinylated chemically. Prior to measurements, streptavidin-coated biosensors are first hydrated in assay buffer for 10 minutes. […]
15 constructs of identified initial hits were expressed and purified—their binding affinities range from nanomolar to micromolar (data not shown). […] The binding affinity of each variant was calculated as described in Cao et al, 2022. […]
In general terms: Biolayer interferometry detects binding as a change in optical thickness at a sensor tip.

In assay [2] the target is integrin a8b1 (Homo sapiens, UniProt P05556+P53708). As to the kind of experiment: BLI cross specificity, integrin a8b1. Type of assay: binding. The conditions noted are these: 500 nM integrin (FIG. 2B legend: 500 nM or 1000 nM), integrin assay buffer.
Sequence of integrin a8b1 (P53708 39-906 limits assumed): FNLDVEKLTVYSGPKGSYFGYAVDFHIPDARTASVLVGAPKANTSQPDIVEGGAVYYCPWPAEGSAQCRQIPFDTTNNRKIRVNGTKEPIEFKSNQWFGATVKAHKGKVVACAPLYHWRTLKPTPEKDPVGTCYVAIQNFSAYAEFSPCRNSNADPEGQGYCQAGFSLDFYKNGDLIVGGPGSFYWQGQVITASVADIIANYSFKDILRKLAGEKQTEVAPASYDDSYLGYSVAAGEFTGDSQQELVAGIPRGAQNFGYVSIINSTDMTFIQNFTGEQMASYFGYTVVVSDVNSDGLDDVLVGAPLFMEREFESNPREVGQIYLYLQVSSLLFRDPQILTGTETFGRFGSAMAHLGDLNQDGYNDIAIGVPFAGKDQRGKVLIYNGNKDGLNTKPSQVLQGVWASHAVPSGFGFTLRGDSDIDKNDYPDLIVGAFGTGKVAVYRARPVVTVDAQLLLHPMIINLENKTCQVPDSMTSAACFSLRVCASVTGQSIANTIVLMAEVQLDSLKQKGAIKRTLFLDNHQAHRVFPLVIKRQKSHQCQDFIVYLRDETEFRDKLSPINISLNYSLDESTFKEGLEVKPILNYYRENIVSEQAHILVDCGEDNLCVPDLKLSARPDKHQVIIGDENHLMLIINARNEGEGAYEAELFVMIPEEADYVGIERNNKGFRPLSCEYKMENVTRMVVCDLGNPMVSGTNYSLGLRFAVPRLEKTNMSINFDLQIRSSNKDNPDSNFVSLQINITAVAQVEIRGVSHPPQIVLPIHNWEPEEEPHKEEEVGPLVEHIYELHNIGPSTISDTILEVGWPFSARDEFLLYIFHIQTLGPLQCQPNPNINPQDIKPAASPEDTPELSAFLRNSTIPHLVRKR
Sequence of integrin a8b1 (P53708 907-1011 partner limits assumed): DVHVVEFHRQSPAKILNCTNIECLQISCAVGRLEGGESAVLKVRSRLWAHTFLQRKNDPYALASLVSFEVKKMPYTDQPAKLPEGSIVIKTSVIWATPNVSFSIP
Sequence of integrin a8b1 (P05556 21-728 limits assumed): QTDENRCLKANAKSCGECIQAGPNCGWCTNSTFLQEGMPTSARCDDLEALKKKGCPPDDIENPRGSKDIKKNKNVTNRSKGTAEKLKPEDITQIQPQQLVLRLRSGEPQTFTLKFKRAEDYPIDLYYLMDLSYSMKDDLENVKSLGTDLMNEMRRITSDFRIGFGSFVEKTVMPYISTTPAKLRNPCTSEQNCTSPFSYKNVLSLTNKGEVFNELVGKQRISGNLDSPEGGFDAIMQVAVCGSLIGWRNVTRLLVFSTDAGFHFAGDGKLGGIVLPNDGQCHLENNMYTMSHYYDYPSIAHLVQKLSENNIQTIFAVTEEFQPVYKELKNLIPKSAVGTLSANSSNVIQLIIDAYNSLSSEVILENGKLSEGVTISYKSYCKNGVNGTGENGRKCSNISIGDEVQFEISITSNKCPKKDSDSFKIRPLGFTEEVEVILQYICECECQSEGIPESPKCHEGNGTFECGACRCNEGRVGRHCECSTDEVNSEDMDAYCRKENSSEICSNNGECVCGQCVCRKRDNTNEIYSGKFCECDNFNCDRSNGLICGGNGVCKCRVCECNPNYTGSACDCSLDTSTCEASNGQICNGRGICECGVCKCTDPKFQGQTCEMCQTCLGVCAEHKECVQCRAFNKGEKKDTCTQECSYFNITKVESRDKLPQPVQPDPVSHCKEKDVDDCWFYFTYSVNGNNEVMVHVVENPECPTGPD
For assay [3], the target named is integrin avb1 (Homo sapiens, UniProt P05556+P06756). Briefly: BLI cross specificity, integrin avb1. Type of assay: binding. The settings on record: 500 nM integrin (FIG. 2B legend: 500 nM or 1000 nM), integrin assay buffer.
Sequence of integrin avb1 (P06756 31-889 limits assumed): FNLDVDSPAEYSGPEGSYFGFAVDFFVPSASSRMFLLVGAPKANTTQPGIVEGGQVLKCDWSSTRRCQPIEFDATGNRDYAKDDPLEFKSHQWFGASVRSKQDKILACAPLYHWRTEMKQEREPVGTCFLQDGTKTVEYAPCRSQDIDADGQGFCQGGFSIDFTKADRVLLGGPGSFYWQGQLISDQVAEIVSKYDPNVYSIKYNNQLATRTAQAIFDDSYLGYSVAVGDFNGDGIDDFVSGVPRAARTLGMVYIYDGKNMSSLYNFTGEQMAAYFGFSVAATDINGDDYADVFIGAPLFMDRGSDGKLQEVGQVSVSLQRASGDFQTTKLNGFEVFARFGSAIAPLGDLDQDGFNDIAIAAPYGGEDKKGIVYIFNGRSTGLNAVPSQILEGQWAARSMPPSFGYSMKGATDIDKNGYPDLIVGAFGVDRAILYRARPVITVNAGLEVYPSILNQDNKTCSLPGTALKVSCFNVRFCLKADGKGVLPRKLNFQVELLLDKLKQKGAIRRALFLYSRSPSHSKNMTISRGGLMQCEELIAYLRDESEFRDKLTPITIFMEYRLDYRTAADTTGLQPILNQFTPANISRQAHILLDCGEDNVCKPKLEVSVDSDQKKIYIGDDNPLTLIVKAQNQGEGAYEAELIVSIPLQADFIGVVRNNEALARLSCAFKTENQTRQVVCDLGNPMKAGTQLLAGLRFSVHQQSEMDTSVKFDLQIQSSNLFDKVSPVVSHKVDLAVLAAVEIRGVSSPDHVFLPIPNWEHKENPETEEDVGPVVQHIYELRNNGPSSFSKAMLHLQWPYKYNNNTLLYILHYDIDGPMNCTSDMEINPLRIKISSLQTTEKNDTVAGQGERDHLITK
Sequence of integrin avb1 (P06756 891-992 partner limits assumed): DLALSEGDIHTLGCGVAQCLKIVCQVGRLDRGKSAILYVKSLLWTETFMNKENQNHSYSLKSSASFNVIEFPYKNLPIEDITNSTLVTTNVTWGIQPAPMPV
Sequence of integrin avb1 (P05556 21-728 limits assumed): as the sequence (P05556 21-728 limits assumed) above
Assay [4] deals with HUVECs. As to the kind of experiment: Scratch-wound cell migration assay. It counts as cell-based, human. The settings on record: 20 nM, 12 hours, compared to PBS control. The method, then: FIG. 2. (A) BLI binding affinity traces for minibinder or ^8RGD^10/GGG mutant against α5β1 in indicated buffers. Minibinder affinity to integrin α5β1 is dependent on metal ion presence and RGD motif. All affinity data was collected by Octet™ R8 and binding affinity was estimated by the Octet™ ForteBio software package. (B) Minibinder has no detectable affinity in presence of 500 nM or 1000 nM integrin αvβ1, αvβ3, αvβ6, αvβ8 and α8β1. (C) Cell surface titration of minibinder 4584_V5.3 and 00179_v4.1 against K562 cells wild type. […] Integrin α5 subunit and β1 subunit were stained with integrin α5 and active integrin β1 subunit specific antibody, respectively. (E) Quantification of (D). Quantification was counted as a percentage of mb-sheets that colocalized with staining of a5 and b1, a5 only, b1 only, or none; 30-35 sheets were counted in each biological repeat. […] Minibinders were added to HUVEC cells at 0, 0.1, 1, 10, and 100 nM. Vascular stability was analyzed at 12-h timepoints. 20 images were taken in each well at random locations. The scale bar is 100 μm. (G) Quantification of (F). The number of nodes, meshes, and tubes from images in (F) were quantified using an angiogenesis analyzer plug-in in ImageJ. Statistical significance of each were analyzed using One-way Anova Bonferroni's multiple comparison test. […] The wound area of T0 and T12 time points were quantified using imageJ and level of cell migration were calculated using this equation (AreaT0-T12)/AreaT0, all samples were normalized to PBS as fold change.
The inhibitory effect of 20 nM soluble 00179_v4.1 on cell migration was assessed using the scratch-wound assay. HUVECs were seeded with either 00179_v4.1 or PBS (used as a […] control) for 12 hours before capturing images for analysis.

Sequence of integrin α5β1 (P08648 42-894 limits assumed): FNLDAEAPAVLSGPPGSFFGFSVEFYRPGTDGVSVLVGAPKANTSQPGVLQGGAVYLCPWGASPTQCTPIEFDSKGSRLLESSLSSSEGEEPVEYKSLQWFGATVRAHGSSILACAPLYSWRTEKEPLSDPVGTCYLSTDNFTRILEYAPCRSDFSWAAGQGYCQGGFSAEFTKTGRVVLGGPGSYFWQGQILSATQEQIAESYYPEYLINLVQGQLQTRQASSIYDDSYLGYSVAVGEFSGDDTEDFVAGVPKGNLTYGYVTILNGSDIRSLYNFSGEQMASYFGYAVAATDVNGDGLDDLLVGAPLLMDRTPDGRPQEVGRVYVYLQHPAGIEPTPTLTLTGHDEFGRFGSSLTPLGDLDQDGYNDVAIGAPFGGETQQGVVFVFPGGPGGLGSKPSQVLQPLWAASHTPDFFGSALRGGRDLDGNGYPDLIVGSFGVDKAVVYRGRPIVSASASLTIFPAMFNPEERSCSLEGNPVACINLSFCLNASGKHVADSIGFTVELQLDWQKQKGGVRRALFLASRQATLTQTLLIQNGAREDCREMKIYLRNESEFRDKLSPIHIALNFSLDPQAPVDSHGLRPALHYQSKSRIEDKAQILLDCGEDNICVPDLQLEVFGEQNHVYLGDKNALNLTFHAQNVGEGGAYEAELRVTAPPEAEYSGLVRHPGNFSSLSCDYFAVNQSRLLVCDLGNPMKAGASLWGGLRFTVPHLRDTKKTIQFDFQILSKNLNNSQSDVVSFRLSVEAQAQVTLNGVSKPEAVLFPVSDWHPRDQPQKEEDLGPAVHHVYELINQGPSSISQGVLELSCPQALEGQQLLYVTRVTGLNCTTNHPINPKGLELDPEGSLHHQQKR
Sequence of integrin α5β1 (P08648 895-995 partner limits assumed): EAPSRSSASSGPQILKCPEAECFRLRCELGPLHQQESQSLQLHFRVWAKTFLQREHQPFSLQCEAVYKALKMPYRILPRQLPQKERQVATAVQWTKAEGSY
Sequence of integrin α5β1 (P05556 21-728 limits assumed): as the sequence (P05556 21-728 limits assumed) above

B1: 00179_v4.1: highest affinity α5β1 minibinder, sequence SELIIHGRGDFPSSELERLRERFERLGIKVRVDHKVLTLIGISEEEAERLARELRKRGIWVEIRK (protein)
chain: SELIIHGRGDFPSSELERLRERFERLGIKVRVDHKVLTLIGISEEEAERLARELRKRGIWVEIRK
As for B1, in assay [1], the “binding to α5β1 at pH 5” value is reported as “still can bind”. Moreover, the “binding to integrin a8b1” value in assay [2] is given as “No detectable binding”. Further, in assay [3], the “binding to integrin avb1” value is “No detectable binding”. Also, the cell migration entry in assay [4] is given as “significant reduction in cell migration”.

Source of the values: patent US20240383964A1, “De Novo Designed alpha(5) beta(1) Integrin selective minibinders” (UNIVERSITY OF WASHINGTON, priority 2023, published 2024).
